Results: PMC4110014

Columns and labels:
Caldendrin full length [1] = target: Caldendrin full length (UniProt O88751); assay: dynamic light scattering; Zetasizer Nano S, 25°C, 50 mM Tris, 100 mM KCl, Mg2+ with EGTA or with 50 µM Ca2+; monomer to dimer
Caldendrin full length [2] = target: Caldendrin full length (UniProt O88751); assay: SEC; Superdex 75, ÄKTA FPLC, 50 mM Tris, 100 mM KCl, 500 µM Mg2+ with 200 µM EGTA or 100 µM Ca2+; monomer to dimer
Caldendrin full length [3] = target: Caldendrin full length (UniProt O88751); assay: SPR; Biacore X-100, CM5 chip, ligand amine-coupled, 25°C, flow 10 µl/min; running buffer with 1 mM Mg2+/1 mM EGTA (column 'EGTA'); molar binding activity deduced from the dissociation phase
Caldendrin full length [4] = target: Caldendrin full length (UniProt O88751); assay: cross-linking + SEC; protein incubated with 0.01% glutaraldehyde, then Superdex 75 gel filtration
Caldendrin full length [5] = target: Caldendrin full length (UniProt O88751); assay: SPR; Biacore X-100, CM5 chip, ligand amine-coupled, 25°C, flow 10 µl/min; running buffer with 1 mM Mg2+/500 µM Ca2+ (column 'Ca2+'); molar binding activity deduced from the dissociation phase
[6] = target: Caldendrin-C-terminus (Caldendrin-Ct, residues 137–298) (UniProt O88751); assay: SPR; Biacore X-100, CM5 chip, ligand amine-coupled, 25°C, flow 10 µl/min; running buffer with 1 mM Mg2+/1 mM EGTA (column 'EGTA'); molar binding activity deduced from the dissociation phase
[7] = target: Caldendrin-C-terminus (Caldendrin-Ct, residues 137–298) (UniProt O88751); assay: SPR; Biacore X-100, CM5 chip, ligand amine-coupled, 25°C, flow 10 µl/min; running buffer with 1 mM Mg2+/500 µM Ca2+ (column 'Ca2+'); molar binding activity deduced from the dissociation phase

Chain of Caldendrin-C-terminus (Caldendrin-Ct, residues 137–298), O88751 137-298 (domain or fragment; other documents disagree on this pair) (O88751 137-298): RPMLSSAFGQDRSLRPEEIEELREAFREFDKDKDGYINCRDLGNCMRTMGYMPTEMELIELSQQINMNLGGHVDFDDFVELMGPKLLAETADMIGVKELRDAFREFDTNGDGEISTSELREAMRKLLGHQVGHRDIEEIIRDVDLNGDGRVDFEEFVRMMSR

Row | Substance | stoichiometry N (Caldendrin full length [1]) | stoichiometry N (Caldendrin full length [2]) | molar binding activity (Caldendrin full length [3]) | stoichiometry N (Caldendrin full length [4]) | molar binding activity (Caldendrin full length [5]) | molar binding activity [6] | molar binding activity [7]
1 | Caldendrin full length (from UniProt O88751 1-298) (natural protein) | 2 | 2 | 0.0215 | 2 | 0.0757 |  | 
2 | Caldendrin-C-terminus (Caldendrin-Ct, residues 137–298), O88751 137-298 (domain or fragment; other documents disagree on this pair) |  |  |  |  |  | 0.0541 | 0.0373
